According to US20240091361A1, “T CELL RECEPTORS TARGETING RAS MUTATIONS AND USES THEREOF” (MEMORIAL SLOAN-KETTERING CANCER CENTER, priority 2021, published 2024):

Tests used:
[1] = target: T1, ELP2 peptide on HLA-A*11:01 (human); test: cytokine release
T1 peptide: VSAAADSAVR

[2] = target: T2, KI26A peptide on HLA-A*11:01 (human); test: cytokine release
T2 peptide: PVAGPDGLSK

[3] = target: T3, FRPD4 peptide on HLA-A*11:01 (human); test: cytokine release
T3 peptide: KSKLADGEGK

[4] = target: T4, DCAF7 peptide on HLA-A*11:01 (human); test: cytokine release
T4 peptide: ASVGADGSVR

[5] = target: T5, TAF6 peptide on HLA-A*11:01 (human); test: cytokine release
T5 peptide: GATTADGKGK

[6] = target: T6, FRPD1 peptide on HLA-A*11:01 (human); test: cytokine release
T6 peptide: KVAAADGPAR

[7] = target: T7, INO80 peptide on HLA-A*11:01 (human); test: cytokine release
T7 peptide: SSLAPDSLVR

[8] = target: T8, KRAS wild type (10-mer) peptide on HLA-A*11:01 (human); test: cytokine release
T8 peptide: VVVGAGGVGK

[9] = target: T9, PRP4 peptide on HLA-A*11:01 (human); test: cytokine release
T9 peptide: ASCAADGSVK

[10] = target: T10, TUTLA (also listed as SEQ ID NO 134) peptide on HLA-A*11:01 (human); test: cytokine release
T10 peptide: ISQGADGRGK

[11] = target: T11, GEM (also listed as SEQ ID NOs 82, 106, 130, 141) peptide on HLA-A*11:01 (human); test: cytokine release
T11 peptide: AVFGAGGVGK

[12] = target: T12, KRAS G12D (10-mer; the same sequence in NRAS G12D and HRAS G12D) peptide on HLA-A*11:01 (human); test: multimer staining
T12 peptide: VVVGADGVGK

- binding result [1]: no recognition
- binding result [2]: no recognition
- binding result [3]: no recognition
- binding result [4]: no recognition
- binding result [5]: no recognition
- binding result [6]: no recognition
- binding result [7]: no recognition
- binding result [8]: no recognition
- binding result [9]: no recognition
- binding result [10]: no recognition
- binding result [11]: no recognition
- binding result [12]: recognises
B1: TCR 5 (TCR, V domains shown)
Valpha: GEDVEQSLFLSVREGDSSVINCTYTDSSSTYLYWYKQEPGAGLQLLTYIFSNMDMKQDQRLTVLLNKKDKHLSLRIADTQTGDSAIYFCAERDAGNNRKLIWGLGTSLAVNP
Vbeta: GAGVSQSPRYKVAKRGQDVALRCDPISGHVSLFWYQQALGQGPEFLTYFQNEAQLDKSGLPSDRFFAERPEGSVSTLKIQRTQQEDSAVYLCASSLEGGDTQYFGPGTRLTVL
